# Measurements from the nanobody polyreactivity screen of Harvey et al. (2022).
# Assay: yeast display, Sf9 membrane polyspecificity reagent, FACS + sequencing; frameworks hold sequencing errors
# Method in brief: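 Synthetic nanobody libraries on Saccharomyces cerevisiae BJ5465 were galactose-induced for 36–48 hours, stained 1 hour at 4 °C with 10% biotinylated, detergent-solubilized Sf9 membrane reagent and enriched on streptavidin microbeads. FACS then separated cells into low and high (top ~1%) gates by anti-HA (expression) and streptavidin (reagent binding) fluorescence. Genes were colony-PCR amplified, MiSeq 2 × 250 sequenced and CDR-length filtered. A clone's polyreactivity label is that of its gate of origin.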
row,Sequence,polyreactivity (PSR sort gate)
1,QVQLVESGGGLVQAGGSLRFSCAASGIIFYFYTMGWYRQAPGKERELVAAISSSGGRTFYADSVKGRFTISRDHAKNTVYLQMNSLKPEDTAVYYCAAGYPYGGDYWGQGTQVTVSS,high polyreactivity
2,QVQLVESGGGLVQAGGSLRFSCAASGLIFRGYVMGWYRQAPGKERELVAAISRRGVNTYYADSVKGRFTISRDNAKNTVYLQMNSLKPEDTAVYYCAAETHVGWPAKFDYWGQGTRVTVSS,high polyreactivity
3,QVQLVESGGGLVQAGGSLRFSCAASGLTFSWNAMGWDRQAPGQERELVAAITSSGTSTYYADSVKGRFSISRDNAKITVYLQMHSLKPEDTAVYYGAAEGDYWGWEDDYWGQGTQVTVSS,high polyreactivity
4,QVQLVESGGGLVQAGGSLRFSCAASGRIFDYYAMGGYRQAPGKERELVATINVSDGSTYYADSVKGRFTISRDNAKNTVYLQMNSLKPEDTAVYYCAAAGWVPFDSLDLNYWGQGTQVTVSS,low polyreactivity
5,QVQLVESGGGLVQAGGSLRFSCAASGRIFGRYAMGWYRQAPGKERELDAAISYSGGSTYYADSVKGRFTISRDNAKNTVYLQMNSLKPEDTAVYYCAVVVYQYTPSQRFYYWGQGTQVTVSS,high polyreactivity
6,QVQLVESGGGLVQAGGSLRFSCAASGRIFSIYAMGWYRQAPGKERELVAAISKRGGSTSYADSVKGRFTISRDNAKNTVYLQMNSLKPEDTAVYYCNARGWIPARGWDDYYWGQGTQVTVSS,high polyreactivity
7,QVQLVESGGGLVQAGGSLRFSCAASGRIFYANAMGWYRQAPGKERELVAAISSGGSTYYADSVKGRFTISRDNAKNTVFLQMNSLKPEDTAVYYCAVYTHKKVRPEYVYWGQGTQVTVSS,low polyreactivity
8,QVQLVESGGGLVQAGGSLRFSCAASGRNFVVYAMGWYRQAPRKEREFVAAITWSGDSTTYYADSVKGRFTISRDNAMTTFYLQLKSLKPDDTAVYYCASEGDGANGGAYDYWGQGTQVNVSS,low polyreactivity
9,QVQLVESGGGLVQAGGSLRFSCAASGRTFYGYAMGWYRQAPGKERELVAAITRSGGSTYYADSVKGRFTISRDNAKNTVYLQMNSLKPEDTAVYYCAAGGQARHDYWGQGTQVTVSS,low polyreactivity
10,QVQLVESGGGLVQAGGSLRFSCAASGSIIYFYAMGWYRQAPGKERELVATITSGGRTYYADSVKGRFTISRDTAKNTVYLQMNSLKPEDTAVYYCNRRPVSYRYSSYNYDYLGQGTQVTVSS,high polyreactivity
11,QVQLVESGGGLVQAGGSLRFSCAASGSILSKNAMGWYRQAPGKERELVAAISSGGSTYYADSVKGRFTISRDKAKNTVYLQLNSLKPEDTAVYYCATYCTSVAYHLYYWGQGTQVTVSS,low polyreactivity
12,QVQLVESGGGLVQAGGSLRFSCAASGSTFGDYTMGWYRQAPGKERELVAAISTSGTITYYADSVKGRFTISRDNAKNTVYLQMNSLKPEDTAVYYCAKLSQYTPVNDGYYWGQGTQVTVSS,low polyreactivity
13,QVQLVESGGGLVQAGGSLRFSCAASGSTFPYYAMGLYRQAPGKERELVATITKRGGRTYYADSVKGRFTISRDNAKNTVYLQMISLKPEDTAVYYCAARYRFAVTYEYWGQGTQVTVSS,high polyreactivity
14,QVQLVESGGGLVQAGGSLRFSCAASGYIFTPYAMGWYRQAPGKERELVAAISWSGGSTYYADSVKGRFTISRDNEKNTVYLQMNSLKPEDTAVYYCAAESAWGSRVFYSKFYYWGQGTQVTVSS,low polyreactivity
15,QVQLVESGGGLVQAGGSLRFSCAATGSISYGYAMGWYKQAHGKERELVAAISRRGGTTYFADSVKGRFTISRDNAKNSLYLQINSLKAEDTAVYYCNALLPDLAQYDYWGQGTQVTVSS,high polyreactivity
16,QVQLVESGGGLVQAGGSLRFSCADSGFTFRTYAMGWYIQAPGKERELVATIRRAGSTYYADSVKGRFTISRDNAKNTVYLQMNSLKPEDTAVYYCAATHYSFSWGYDYWGQGTQVTVSS,high polyreactivity
17,QVQLVESGGGLVQAGGSLRFSSAASGRTFSSNAMGWYIQAPGKERELVAAISNSGSSTYYADSVKGRFTISRDNAKNTVYLQMNSLKPEDSAVYYCNAVGVYYWWYRLYDYWGQGTQVTVSS,high polyreactivity
18,QVQLVESGGGLVQAGGSLRFSSPASGGTFFVNAMGWYRQAPGKERELVASITLSGGSSYYADSVKGRFTISRDNAKNTVYLQMNSLKPEDTAVYYCAKGWTRDNEREREDEYWGQGTQGTVSS,low polyreactivity
19,QVQLVESGGGLVQAGGSLRIICAASGSIFTYNSMGWYREAPGKERELVAAISASGGRTYYADSVKGRFTISRDNAKNTVYLQMNSLKPEDTAVYYCNVLHRSDSGYYYRYDYWGQGTQVTVSS,high polyreactivity
20,QVQLVESGGGLVQAGGSLRIICPASGNTFAYYAMGWYRQAPGKEREFVAAISGSGGRTYYADSVKGRFTISRDNAKNTVYLQMNILKPEDTAVYYCNARPAGGQGYGYWGQGTQVTVSS,high polyreactivity
21,QVQLVESGGGLVQAGGSLRISCAASAITFPRNAMGWYREAPGKERELVAAITSVGSTKYADSVKGRFTFSRDNAKNTVYLQMNSLKPEDTAVYYCATRGASAISNSVRWSYYYWGQGTQVTVSS,low polyreactivity
22,QVQLVESGGGLVQAGGSLRISCAASGFIFDPYAMGWYRQAPGKERELVASINTRGDRTSYADSVKGRFTISRDNAKNTVYLQMNSLKPEDTAVYYCNADAVDQVGPDDDYWGQGTQVTVSS,low polyreactivity

row,Sequence,polyreactivity (PSR sort gate)
1,QVQLVESGGGLVQAGGSLRISCAASGFIFGTNAKGWYRQAPGKERELVAAINCRGGGTYYADSVKGRFTISRDNAKYTVYLEMNSLKPEDTAVYYCAASRFDYWGQGTQVTVSS,low polyreactivity
2,QVQLVESGGGLVQAGGSLRISCAASGFIFNIYAMGWYRQAPGKERELVASITSGGNTNYADSVKGRFTISRDNAKNTVYLQMNSLKPEDTAVYYCAAETSSSRGYDYWGQGTQVTVSS,low polyreactivity
3,QVQLVESGGGLVQAGGSLRISCAASGFIFPWYTMGWYRQAPGKERELVAVINQSGGSTYYADSVKGRFTISRDNAKNTVYLQMNSLKPEDTAVYYCAARLVKQYYYWGQGTQVTVSS,high polyreactivity
4,QVQLVESGGGLVQAGGSLRISCAASGFIFQSNAMGWYRQAPGKERELVAAISWSGDNTYYADSVKGRFTISRDNAKNTVYLQMNSLKPEDTAVYYCAAVPYPSYYDTGYDYWGQGTQVTVSS,low polyreactivity
5,QVQLVESGGGLVQAGGSLRISCAASGFIFTGTALGWYRQAPGKERELVAAITWSGGRTYYADSVKGRFTISRDNAKNTVYLQMNSLKPEDTAVYYCNVYFSIAQRYVGGLIAHDNYWGQGTQVTVSS,high polyreactivity
6,QVQLVESGGGLVQAGGSLRISCAASGFIISFYAMGWYRQAPRKERELVAAIKLSGGSTYYADSVKGRFTISRDNAKNTVYLQMNSLKPEETAVYYCNDVQYFSIPKPVWLFVLRYYYWGHGTQVTVSS,low polyreactivity
7,QVQLVESGGGLVQAGGSLRISCAASGFTFSYNAMGWYRQAPGKERELVAGINVSSGGDTYADSVKGRFTISRDNAKNTVYLQMNSLKPEDTAVYYCAKDHYGDDTYGTPYDYDYWGQGTQVTVSS,low polyreactivity
8,QVQLVESGGGLVQAGGSLRISCAASGGIIAINSMRCYRQAPGKERELVAAISWGDGITYYSDSVKRRFTISRDNAKYTVYLHMISLKPEDTAVYYCAADEDEYRGGDESWGQGTQVTVSA,low polyreactivity
9,QVQLVESGGGLVQAGGSLRISCAASGGTFQAYAMGWYRPAPGKERELVAAITRRGTRTYYADSVKGRFTISRDNAKNTVYLQMNSLKPEDTAVYYCAAVRYPNWYDYWGQGTQVTVSS,high polyreactivity
10,QVQLVESGGGLVQAGGSLRISCAASGIIFYRNAMGWYRQAPGKERELVAVITASGGNTYYADSVKGRFTISRDNAKNTVYLQMNSLKPEDTAVYYCNRELTSPRRWHVSRAYDYWGQGTQVTVSS,low polyreactivity
11,QVQLVESGGGLVQAGGSLRISCAASGITFYGYAMGRYRQAPGKERELVATISKSGGITSYADSVKGRFTISRDNAKNTVYLQMNSLKPEDTAVYYCNRGKSYGGYDYWGQGTQVTVSS,low polyreactivity
12,QVQLVESGGGLVQAGGSLRISCAASGLIFGINAMGWYIQAPGKERELVATITSGGGTNYADSVKGRFTISRDNAKNTVYLQMNSLKPEYTAVYFCALDSASDTIYDYWGQGTQGTVSS,low polyreactivity
13,QVQLVESGGGLVQAGGSLRISCAASGLTFDYNAMGWYTQAPGKERELVAAITSGGSTKYADSVKGRFTISRDNSKNTVYLQMNSLKPEDTAVYYCARDRPGDYAGYDYWGQGTQVTVSS,low polyreactivity
14,QVQLVESGGGLVQAGGSLRISCAASGLTFGRYAMGWYRQAPGKEMELVAAITGSGGRTYYADSVKGRFTISRDNAKNNVYLQINSLKQEDTAVYYCATEASPRGYAEYDYWGQGTQVTVSS,high polyreactivity
15,QVQLVESGGGLVQAGGSLRISCAASGLTFWAYAMGWYRQAPGKEREFLAAISWSGDSTYYADSVKGRFTISRDNAKNTVYLQMNSLKPEDTAVYYCAAEWYYVYIAPYDYWGLGTQVTVSS,low polyreactivity
16,QVQLVESGGGLVQAGGSLRISCAASGRIFEVYDMGWYRQAPGKERELVAAISESDDNTYYADSVKGRFTISRDNAKNTVYLQMNSLKPEDTEVYYCNADVPGDTGWWGFDYWGQGTQVTVSS,low polyreactivity
17,QVQLVESGGGLVQAGGSLRISCAASGRIFSWYVMGWYRQAPGKERELVAAISSGGSTYYADSVKGRFTISRDNAKNTVSFQMNSLKPEDTAVYYCAVRPYVYRIGASRLDYWGQGTQVTVSS,high polyreactivity
18,QVQLVESGGGLVQAGGSLRISCAASGRIFYVYAMGWYRQAPGKERELVAAISTGSPTYYADSVNGRFTISRDNAKNTVYLQMNSLKPEDTAVYFCATGSIHGDFWSFRHQYYYWGQGTQVTVSS,low polyreactivity
19,QVQLVESGGGLVQAGGSLRISCAASGRTFARYVMGWYRQAPGKERELVAAISGGGGSTYYADSVKGRLTISRDTAKNTVFLQMNSLKPAETAVYYCAAVPEGPNTGDDANGLDYWGQGTQVTVSS,low polyreactivity
20,QVQLVESGGGLVQAGGSLRISCAASGRTFGPYAMGWYRQAPGKERELGAAITSSGGSTYYADSVKGRFTISRDNAKNTVYLQMNSLKPEDTAVFYCNKLYWRQSLDYDYWGQGTQVTVSS,low polyreactivity
21,QVQLVESGGGLVQAGGSLRISCAASGRTFGRYTMGWYRQAPGKVRELVASISNTARTNYADSVKGRFTISRDNAKNTVYLQMNSLKPEDTAVYYCASGFVRYRGTRDYWGQGTQVTVSS,low polyreactivity
